Assays:
Boc-QAR-AMC (ES014) = tested on: T1, Boc-QAR-AMC (ES014)
T1 sequence: QAR

Tau-441 (P301L) = Tau-441 (P301L) (UniProt P10636)
Tau-410 = Tau-410 (UniProt P10636)
p-Tau-441 = p-Tau-441 (UniProt P10636)
α-synuclein = α-synuclein (UniProt P37840)

Tau-441 (P301L), sequence (P10636 other isoform, or with tags, fused parts or gaps P301L): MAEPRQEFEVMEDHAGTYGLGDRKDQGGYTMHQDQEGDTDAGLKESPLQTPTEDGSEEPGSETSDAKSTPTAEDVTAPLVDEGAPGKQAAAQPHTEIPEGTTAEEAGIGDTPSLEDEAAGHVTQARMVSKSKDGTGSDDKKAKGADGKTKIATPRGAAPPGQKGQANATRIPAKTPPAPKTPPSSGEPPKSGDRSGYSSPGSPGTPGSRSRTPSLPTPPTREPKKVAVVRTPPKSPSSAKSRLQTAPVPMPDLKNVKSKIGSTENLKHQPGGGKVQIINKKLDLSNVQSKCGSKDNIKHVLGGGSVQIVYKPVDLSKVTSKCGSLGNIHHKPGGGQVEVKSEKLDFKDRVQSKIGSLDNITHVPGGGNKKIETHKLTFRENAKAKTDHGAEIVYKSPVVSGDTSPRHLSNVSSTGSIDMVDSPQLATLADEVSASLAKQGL
p-Tau-441, sequence (P10636 whole entry, looked up): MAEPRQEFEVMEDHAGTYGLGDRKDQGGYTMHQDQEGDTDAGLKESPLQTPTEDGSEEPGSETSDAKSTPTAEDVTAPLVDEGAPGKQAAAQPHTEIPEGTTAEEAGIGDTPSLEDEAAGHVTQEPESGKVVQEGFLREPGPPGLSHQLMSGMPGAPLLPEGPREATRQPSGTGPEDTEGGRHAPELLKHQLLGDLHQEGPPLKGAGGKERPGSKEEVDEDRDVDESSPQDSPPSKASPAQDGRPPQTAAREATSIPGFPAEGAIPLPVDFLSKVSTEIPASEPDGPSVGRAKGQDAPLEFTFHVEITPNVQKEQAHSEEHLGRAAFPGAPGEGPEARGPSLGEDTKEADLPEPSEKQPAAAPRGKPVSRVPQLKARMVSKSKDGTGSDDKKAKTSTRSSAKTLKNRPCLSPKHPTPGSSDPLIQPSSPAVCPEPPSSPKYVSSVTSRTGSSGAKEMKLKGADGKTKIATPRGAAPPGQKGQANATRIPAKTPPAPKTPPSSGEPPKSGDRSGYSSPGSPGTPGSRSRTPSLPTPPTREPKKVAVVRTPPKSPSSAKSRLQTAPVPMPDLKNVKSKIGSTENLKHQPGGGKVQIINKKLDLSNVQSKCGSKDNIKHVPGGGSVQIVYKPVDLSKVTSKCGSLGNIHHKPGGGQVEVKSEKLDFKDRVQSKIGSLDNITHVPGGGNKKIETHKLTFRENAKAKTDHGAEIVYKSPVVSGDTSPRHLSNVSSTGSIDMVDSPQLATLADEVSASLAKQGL
Tau-410, sequence (P10636 other isoform, or with tags, fused parts or gaps): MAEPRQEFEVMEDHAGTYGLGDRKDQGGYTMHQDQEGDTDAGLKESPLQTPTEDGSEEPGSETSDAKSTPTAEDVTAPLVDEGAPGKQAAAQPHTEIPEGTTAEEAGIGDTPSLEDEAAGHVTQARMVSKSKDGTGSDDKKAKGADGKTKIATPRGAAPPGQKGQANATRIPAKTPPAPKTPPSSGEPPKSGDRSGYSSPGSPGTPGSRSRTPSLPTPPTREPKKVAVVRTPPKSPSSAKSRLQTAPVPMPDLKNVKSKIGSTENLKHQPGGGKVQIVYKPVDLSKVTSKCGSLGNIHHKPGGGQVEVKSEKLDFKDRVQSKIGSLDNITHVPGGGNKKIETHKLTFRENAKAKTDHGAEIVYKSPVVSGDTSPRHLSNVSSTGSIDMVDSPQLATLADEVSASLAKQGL

Substance | casein digestion by resin-immobilized protease, RFU over time (Bodipy-labelled casein) | casein-digestion activity, immobilized protease, fluorescence (Bodipy-labelled casein) | digestion on immobilized protease column, SDS-PAGE silver stain (FIG. 3A) (Tau-441 (P301L)) | loss of the Tau-441 (P301L) band on a silver-stained SDS-PAGE gel after incubation on the protease column (Tau-441 (P301L)) | casein digestion by resin-immobilized protease, RFU (520 nm) over time (Bodipy-labelled casein) | casein digestion by resin-immobilized protease, fluorescence (RFU) at 5 and 60 min (Bodipy-labelled casein) | casein digestion, fluorescence (RFU) of Bodipy-labelled casein after 1 h against protease concentration in solution (Bodipy-labelled casein) | casein-digestion activity, immobilized protease, fluorescence (FIG. 2B) (Bodipy-labelled casein) | casein-digestion activity, protease in solution, fluorescence (Bodipy-labelled casein) | % digestion at 0 min (Tau-410) | % digestion at 1 min (Tau-410) | % digestion at 5 min (Tau-410) | % digestion at 60 min (Tau-410) | digestion on immobilized protease column (FIGS. 3B, 3C, 3E, 3F and Table 2) (Tau-410) | % digestion at 0 min (p-Tau-441) | % digestion at 1 min (p-Tau-441) | % digestion at 5 min (p-Tau-441) | % digestion at 60 min (p-Tau-441) | digestion on immobilized protease column (FIGS. 3B, 3C, 3E, 3F and Table 2) (p-Tau-441) | % digestion at 0 min (α-synuclein) | other results
Cathepsin D resin | no signal: the line falls from 0 to about -6000 RFU at 120 min, at or below the control resin (about 0) over the whole time range |  |  |  |  |  |  |  |  |  |  |  |  |  |  |  |  |  |  |  | 
kallikrein-6 (KLK6) activated by lysyl endopeptidase | close to the control at 60 min (about 1000-2000 RFU), then about 19000 RFU at 120 min; control resin stays at about 0 | also exhibited casein-digestion activity at 120 minute incubation time |  |  |  |  |  |  |  |  |  |  |  |  |  |  |  |  |  |  | cleavage of fluorogenic peptide substrate, immobilized protease, 30, 60, 120 min (Boc-QAR-AMC (ES014)): exhibited protease activity at all time points tested; cleavage of the fluorogenic peptide substrate by resin-immobilized protease, AMC fluorescence (RFU) over time (Boc-QAR-AMC (ES014)): about 65000 RFU at 30 min, about 108000 at 60 min and about 215000 at 120 min, still rising; Control resin + ES014 stays at 0
elastase | rises from 0 to about 40000 RFU at 60 min and about 95000 RFU at 120 min; highest curve; control resin stays at about 0 | exhibited casein-digestion activity at 5 minute and 60 minute incubation times | rapidly degraded | no band in the Elastase column lanes at 2, 10 and 20 min; the No protease column lanes show a strong band of equal strength at 2, 10 and 20 min, just above the second labelled marker | rises from 0 to about 107000 RFU at 60 min and about 150000 RFU at 120 min; Control-Resin (no protease) stays at or slightly below 0 | bar at 5 min about 1.5x10^7 RFU, bar at 60 min about 4.3x10^7 RFU; signal grows with time; no control bar drawn | near 0 at about 0.006 ug/ml, rises steadily to about 8.5x10^7 RFU at 100 ug/ml on a log axis; still rising, no upper plateau; highest of the three curves | exhibited casein-digestion activity at 60 minute and 120 minute incubation times | exhibited casein-digestion activity having linear reaction kinetics up to approximately 6 µg/ml of each protease | 0% | 28% | 50% | 81% | rapidly degraded | 0% | 33% | 93% | 100% | rapidly degraded | 0% | % digestion at 1 min (α-synuclein): 71%; digestion on immobilized protease column (FIGS. 3D and 3G and Table 2) (α-synuclein): rapidly degraded
trypsin | rises from 0 to about 24000 RFU at 60 min and about 76000 RFU at 120 min; control resin stays at about 0 | exhibited casein-digestion activity at 5 minute and 60 minute incubation times | rapidly degraded | no band in the Trypsin column lanes at 2, 10 and 20 min; the No protease column lanes show a strong band of equal strength at 2, 10 and 20 min | rises from 0 to about 46000 RFU at 60 min and about 58000 RFU at 120 min; Control-Resin (no protease) stays at or slightly below 0 | bar at 5 min about 1.0x10^7 RFU, bar at 60 min about 2.2x10^7 RFU; lowest of the three groups; no control bar drawn | near 0 up to about 0.2 ug/ml, rises slowly to about 1.4x10^7 RFU at 100 ug/ml; no upper plateau; lowest of the three curves | exhibited casein-digestion activity at 60 minute and 120 minute incubation times | exhibited casein-digestion activity having linear reaction kinetics up to approximately 6 µg/ml of each protease | 0% | 59% | 65% | 93% | rapidly degraded | 0% | 70% | 100% | 100% | rapidly degraded | 0% | % digestion at 1 min (α-synuclein): 90%; % digestion at 5 min (α-synuclein): 100%; % digestion at 60 min (α-synuclein): 100%; digestion on immobilized protease column (FIGS. 3D and 3G and Table 2) (α-synuclein): rapidly degraded

Source: US20210145944
